*1 amine or outer side, *2 acyl side, *3 side chain or, on linkers, in order; H or OH if unused. Where no end group is shown, it is not given here. Side-chain parts run from the residue outwards. [ ]: non-standard residue; d: D form. The star is where a group is joined. αMePhe(2-F) = C[C@](N)(Cc1ccccc1F)C(=O)O; γGlu = O=C(O)[C@H](CCC(=O)[*:2])N[*:1]; C14 diacid = O=C(O)CCCCCCCCCCCCC(=O)*; αMeY = C[C@](N)(Cc1ccc(O)cc1)C(=O)O; αMeL = CC(C)C[C@](C)(N)C(=O)O; Orn = NCCC[C@H](N)C(=O)O; AEEA = NCCOCCOCC(=O)O; Aib = CC(C)(N)C(=O)O
How the values were obtained:
Assay in all cases: cell-based or functional assay
[1] = target: T1, human GIP receptor (human, UniProt P48546 22-466)
T1 sequence (looked up): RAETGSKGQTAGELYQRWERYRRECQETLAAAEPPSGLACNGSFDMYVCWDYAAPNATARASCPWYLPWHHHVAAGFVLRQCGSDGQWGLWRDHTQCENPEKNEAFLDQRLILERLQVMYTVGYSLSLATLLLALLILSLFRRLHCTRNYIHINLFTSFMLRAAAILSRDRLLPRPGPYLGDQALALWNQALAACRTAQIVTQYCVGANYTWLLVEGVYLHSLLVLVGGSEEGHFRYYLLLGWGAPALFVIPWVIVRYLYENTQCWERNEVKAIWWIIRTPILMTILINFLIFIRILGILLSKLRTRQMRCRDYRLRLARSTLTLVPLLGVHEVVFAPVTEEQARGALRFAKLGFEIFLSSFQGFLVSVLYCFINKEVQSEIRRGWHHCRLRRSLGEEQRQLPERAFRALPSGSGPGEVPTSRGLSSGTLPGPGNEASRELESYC

[2] = target: human GLP-1 receptor (human, UniProt P43220 24-463)
[3] = target: human glucagon receptor (human, UniProt P47871 26-477)
Chain of human glucagon receptor (P47871 26-477): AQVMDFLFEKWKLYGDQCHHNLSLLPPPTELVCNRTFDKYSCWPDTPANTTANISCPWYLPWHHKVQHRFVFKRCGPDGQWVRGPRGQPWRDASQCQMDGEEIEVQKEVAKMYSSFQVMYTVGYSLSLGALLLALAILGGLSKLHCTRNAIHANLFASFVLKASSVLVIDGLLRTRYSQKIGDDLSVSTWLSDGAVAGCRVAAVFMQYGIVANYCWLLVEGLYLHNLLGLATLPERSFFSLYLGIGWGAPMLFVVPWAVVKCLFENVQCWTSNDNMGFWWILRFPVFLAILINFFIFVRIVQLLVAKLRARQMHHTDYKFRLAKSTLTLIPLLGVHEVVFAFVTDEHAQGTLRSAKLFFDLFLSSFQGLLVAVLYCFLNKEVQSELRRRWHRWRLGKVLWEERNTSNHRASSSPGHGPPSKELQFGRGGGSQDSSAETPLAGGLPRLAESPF

[4] = target: T2, human GIP receptor (human) (UniProt P48546)
T2 sequence (looked up): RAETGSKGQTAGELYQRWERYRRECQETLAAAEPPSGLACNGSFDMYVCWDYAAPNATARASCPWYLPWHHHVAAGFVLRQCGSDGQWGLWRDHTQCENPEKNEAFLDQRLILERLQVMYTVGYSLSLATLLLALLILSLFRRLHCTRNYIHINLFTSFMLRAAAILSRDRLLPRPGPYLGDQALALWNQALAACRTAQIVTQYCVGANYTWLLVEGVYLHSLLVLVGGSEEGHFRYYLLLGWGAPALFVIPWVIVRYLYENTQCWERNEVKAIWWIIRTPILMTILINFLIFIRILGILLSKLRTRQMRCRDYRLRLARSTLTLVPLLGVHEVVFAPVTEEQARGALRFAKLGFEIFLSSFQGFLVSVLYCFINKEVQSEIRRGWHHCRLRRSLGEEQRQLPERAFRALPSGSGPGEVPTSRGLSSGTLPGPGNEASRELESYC

[5] = target: human glucagon receptor (human) (UniProt P47871)
[6] = target: hGLP-1R (Homo sapiens, UniProt P43220)

Binder	cAMP EC50 (1.0% HSA) [1]	cAMP Emax (1.0% HSA) [1]	cAMP EC50 (1.0% HSA) [2]	cAMP EC50 (1.0% HSA) [3]	cAMP EC50 [4]	cAMP Emax [4]	cAMP EC50 [5]	cAMP EC50 [6]	cAMP Emax [6]	cAMP Emax (1.0% HSA) [2]
YXEGTXTSDXXIXLDXKAQXKFIXXLIEGGPSSGAPPPS (Y-Aib-EGT-αMeF(2F)-TSD-4Pal-Aib-I-αMeL-LD-Orn-K((2-[2-(2-Amino-ethoxy)-ethoxy]-acetyl)3-(γ-Glu)-CO-(CH2)10-CH3)AQ-Aib-K((2-[2-(2-Amino-ethoxy)-ethoxy]-acetyl)3-(γ-Glu)-CO-(CH2)10-CH3)FI-(D-Glu)-αMeY-LIEGGPSSGAPPPS-NH2) [Example 422]	0.199 nM	97.5%	3.84 nM	> 9950 nM	0.00655 nM	104%	> 9950 nM	0.0729 nM	106%	–
YXEGTXTSDXXIXLDXKAQXXFIXXLIKGGPSSGAPPPS (Y-Aib-EGT-αMeF(2F)-TSD-4Pal-Aib-I-αMeL-LD-Orn-K((2-[2-(2-Amino-ethoxy)-ethoxy]-acetyl)2-(γ-Glu)-CO-(CH2)10-CH3)AQ-Aib-Orn-FI-(D-Glu)-αMeY-LIK((2-[2-(2-Amino-ethoxy)-ethoxy]-acetyl)2-(γ-Glu)-CO-(CH2)10-CH3)GGPSSGAPPPS-NH2) [Example 414]	0.274 nM	92.2%	3.24 nM	> 9950 nM	0.00961 nM	98.4%	> 9950 nM	0.119 nM	–	–
YXEGTXTSDKXIXLDXKAQXXFIXXLIEGGPSSGAPPPS (Y-Aib-EGT-αMeF(2F)-TSDK((2-[2-(2-Amino-ethoxy)-ethoxy]-acetyl)2-(γ-Glu)-CO-(CH2)10-CH3)-Aib-I-αMeL-LD-Orn-K((2-[2-(2-Amino-ethoxy)-ethoxy]-acetyl)2-(γ-Glu)-CO-(CH2)10-CH3)AQ-Aib-Orn-FI-(D-Glu)-αMeY-LIEGGPSSGAPPPS-NH2) [Example 417]	0.201 nM	–	2.66 nM	> 9950 nM	0.00651 nM	101%	> 9950 nM	0.0675 nM	109%	–
YXEGTXTSDXXIXLDXKAQXXFIXXLIEGGPSSGAPPPSK (Y-Aib-EGT-αMeF(2F)-TSD-4Pal-Aib-I-αMeL-LD-Orn-K((2-[2-(2-Amino-ethoxy)-ethoxy]-acetyl)2-(γ-Glu)-CO-(CH2)10-CH3)AQ-Aib-Orn-FI-(D-Glu)-αMeY-LIEGGPSSGAPPPSK((2-[2-(2-Amino-ethoxy)-ethoxy]-acetyl)2-(γ-Glu)-CO-(CH2)10-CH3)-NH2) [Example 418]	0.126 nM	–	1.72 nM	> 9950 nM	0.00599 nM	91%	> 9950 nM	0.0603 nM	93.7%	98.8%
YXEGTXTSDXXIXLDXKAQXEXIXXLIEGGPSSGAPPPSK (not fully specified; Y-Aib-EGT-αMeF(2F)-TSD-4Pal-Aib-I-αMeL-LD-Orn-K((2-[2-(2-Amino-ethoxy)-ethoxy]-acetyl)2-(γ Glu)-CO-(CH2)10C3)AQ-Aib-E-αMeF-I-(D-Glu)-αMeY-LIEGGPSSGAPPPSK((2-[2-(2-Amino-ethoxy)-ethoxy]-acetyl)2-(γ-Glu)-CO-(CH2)10-CH3)-NH2) [Example 431]	0.645 nM	98%	17.5 nM	> 9950 nM	0.0097 nM	104%	> 9950 nM	0.134 nM	99.2%	91.6%
YXEGTXTSDXXIXLDXKAQXEFIXXLIEGGPSSGAPPPSK (Y-Aib-EGT-αMeF(2F)-TSD-4Pal-Aib-I-αMeL-LD-Orn-K((2-[2-(2-Amino-ethoxy)-ethoxy]-acetyl)-(γ-Glu)-CO-(CH2)10-CH3)AQ-Aib-EFI-(D-Glu)-αMeY-LIEGGPSSGAPPPSK((2-[2-(2-Amino-ethoxy)-ethoxy]-acetyl)-(γ-Glu)-CO-(CH2)10-CH3)-NH2) [Example 428]	0.748 nM	–	10.2 nM	> 9950 nM	0.00797 nM	95.5%	> 9950 nM	0.102 nM	106%	–
YXEGTXTSDXXIXLDXKAQXEFIXXLIEGGPSSGAPPPSK (Y-Aib-EGT-αMeF(2F)-TSD-4Pal-Aib-I-αMeL-LD-Orn-K((2-[2-(2-Amino-ethoxy)-ethoxy]-acetyl)3-(γ-Glu)-CO-(CH2)10-CH3)AQ-Aib-EFI-(D-Glu)-αMeY-LIEGGPSSGAPPPSK((2-[2-(2-Amino-ethoxy)-ethoxy]-acetyl)3-(γ-Glu)-CO-(CH2)10-CH3)-NH2) [Example 424]	0.159 nM	–	3.07 nM	> 9950 nM	0.00502 nM	101%	> 9950 nM	0.0427 nM	102%	–
YXEGTXTSDXXIXLDXKAQXXFIXXLIEGGPSSGAPPPSK (Y-Aib-EGT-αMeF(2F)-TSD-4Pal-Aib-I-αMeL-LD-Orn-K((2-[2-(2-Amino-ethoxy)-ethoxy]-acetyl)2-(γ-Glu)-CO-(CH2)10-CH3)AQ-Aib-4Pal-FI-(D-Glu)-αMeY-LIEGGPSSGAPPPSK((2-[2-(2-Amino-ethoxy)-ethoxyl-acetyl)2-(γ-Glu)-CO-(CH2)10-CH3)-NH2) [Example 420]	0.351 nM	–	10 nM	> 9950 nM	0.00964 nM	101%	> 9950 nM	0.123 nM	99.7%	109%
Y[Aib]EGT[αMePhe(2-F)]TSDV[Aib]I[αMeL]LD[Orn]K([AEEA-AEEA-γGlu-C14 diacid])AQ[Aib]K([AEEA-AEEA-γGlu-C14 diacid])FI[dE][αMeY]LI[Orn]GGPSSGAPPPS-NH2 (N-terminus assumed; SMILES CC[C@H](C)[C@H](NC(=O)[C@H](CC(C)C)NC(=O)[C@](C)(Cc1ccc(O)cc1)NC(=O)[C@@H](CCC(=O)O)NC(=O)[C@@H](NC(=O)[C@H](Cc1ccccc1)NC(=O)[C@H](CCCCNC(=O)COCCOCCNC(=O)COCCOCCNC(=O)CC[C@H](NC(=O)CCCCCCCCCCCCC(=O)O)C(=O)O)NC(=O)C(C)(C)NC(=O)[C@H](CCC(N)=O)NC(=O)[C@H](C)NC(=O)[C@H](CCCCNC(=O)COCCOCCNC(=O)COCCOCCNC(=O)CC[C@H](NC(=O)CCCCCCCCCCCCC(=O)O)C(=O)O)NC(=O)[C@H](CCCN)NC(=O)[C@H](CC(=O)O)NC(=O)[C@H](CC(C)C)NC(=O)[C@](C)(CC(C)C)NC(=O)[C@@H](NC(=O)C(C)(C)NC(=O)[C@@H](NC(=O)[C@H](CC(=O)O)NC(=O)[C@H](CO)NC(=O)[C@@H](NC(=O)[C@](C)(Cc1ccccc1F)NC(=O)[C@@H](NC(=O)CNC(=O)[C@H](CCC(=O)O)NC(=O)C(C)(C)NC(=O)[C@@H](N)Cc1ccc(O)cc1)[C@@H](C)O)[C@@H](C)O)C(C)C)[C@@H](C)CC)[C@@H](C)CC)C(=O)N[C@@H](CCCN)C(=O)NCC(=O)NCC(=O)N1CCC[C@H]1C(=O)N[C@@H](CO)C(=O)N[C@@H](CO)C(=O)NCC(=O)N[C@@H](C)C(=O)N1CCC[C@H]1C(=O)N1CCC[C@H]1C(=O)N1CCC[C@H]1C(=O)N[C@@H](CO)C(N)=O) [Example 407]	1.87 nM	95.4%	12.4 nM	> 9950 nM	0.0114 nM	99.2%	> 9950 nM	0.156 nM	100%	97.2%

From patent publication US20230265151A1, “GIP/GLP1 CO-AGONIST COMPOUNDS” (priority 2020, published 2023)
